According to US20250206797A1 (BEIJING TUO JIE BIOPHARMACEUTICAL, published 2025):

Assays:
Test in all cases: cell-based or functional assay
[1] = biological target: insulin receptor of C2C12 mouse myoblasts (mouse, UniProt P15208 28-1372)
IGF-IR [2] = biological target: T1, IGF-IR (human, UniProt P08069 31-1367)
IGF-IR [3] = biological target: T1, IGF-IR; remark: listed apart in the source

insulin receptor of C2C12 mouse myoblasts, sequence (P15208 28-1372): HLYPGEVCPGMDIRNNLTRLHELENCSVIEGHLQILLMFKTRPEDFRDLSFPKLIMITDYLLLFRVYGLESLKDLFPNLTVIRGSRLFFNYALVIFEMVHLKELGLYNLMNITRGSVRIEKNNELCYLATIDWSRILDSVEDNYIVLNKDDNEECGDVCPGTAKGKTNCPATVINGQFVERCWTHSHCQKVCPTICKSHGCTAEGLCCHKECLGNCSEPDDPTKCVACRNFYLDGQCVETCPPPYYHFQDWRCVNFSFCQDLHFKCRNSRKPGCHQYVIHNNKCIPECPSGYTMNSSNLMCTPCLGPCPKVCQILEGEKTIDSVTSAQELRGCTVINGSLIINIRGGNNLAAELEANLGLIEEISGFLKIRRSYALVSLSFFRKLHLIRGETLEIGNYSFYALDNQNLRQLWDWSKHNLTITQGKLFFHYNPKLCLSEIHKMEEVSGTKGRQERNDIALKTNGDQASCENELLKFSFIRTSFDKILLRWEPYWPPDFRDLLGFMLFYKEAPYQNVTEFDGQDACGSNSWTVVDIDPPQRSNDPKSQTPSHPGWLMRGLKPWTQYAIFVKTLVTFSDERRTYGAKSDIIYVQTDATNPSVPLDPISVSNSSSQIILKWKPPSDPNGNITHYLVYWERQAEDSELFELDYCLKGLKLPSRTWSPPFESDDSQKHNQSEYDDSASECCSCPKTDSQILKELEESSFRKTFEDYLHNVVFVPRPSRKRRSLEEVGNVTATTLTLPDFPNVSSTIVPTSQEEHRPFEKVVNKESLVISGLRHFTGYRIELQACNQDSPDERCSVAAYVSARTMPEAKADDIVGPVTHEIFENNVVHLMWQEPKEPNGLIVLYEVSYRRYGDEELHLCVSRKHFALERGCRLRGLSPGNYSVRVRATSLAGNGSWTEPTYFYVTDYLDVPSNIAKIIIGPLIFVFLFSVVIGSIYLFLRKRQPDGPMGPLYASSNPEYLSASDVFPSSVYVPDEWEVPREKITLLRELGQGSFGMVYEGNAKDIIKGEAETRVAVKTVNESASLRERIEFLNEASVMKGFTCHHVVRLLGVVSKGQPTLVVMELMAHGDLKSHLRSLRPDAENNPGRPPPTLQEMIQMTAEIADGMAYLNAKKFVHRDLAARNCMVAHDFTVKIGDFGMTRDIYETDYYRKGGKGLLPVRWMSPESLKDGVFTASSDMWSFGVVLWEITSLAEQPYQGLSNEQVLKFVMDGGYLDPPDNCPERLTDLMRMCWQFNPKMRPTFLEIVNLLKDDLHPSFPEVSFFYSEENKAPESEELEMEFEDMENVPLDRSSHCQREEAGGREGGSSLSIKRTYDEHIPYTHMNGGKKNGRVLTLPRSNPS

| AKT phosphorylation activity (EC50) in C2C12 mouse myoblasts (HTRF phospho-S473) [1] | Activity in promoting MCF-7 proliferation (EC50), CellTiter-Glo (IGF-IR [2]) | EC50 for the activity in promoting MCF-7 proliferation, relative to LY3209590 (IGF-IR [3]) | Binder |
| --- | --- | --- | --- |
| 280 nM |  |  | fusion protein 7 (insulin analog 1 + L2 + IgG2 Fc1) (Fc fusion) FVNQHLCGEHLVEALYLVCGERGFHYGGGGGGSGGGGGIVEQCCESICSLEQLENYCGPGPQPGPQPGPQPGPQPGPQPGPQPGPQPGPQECPPCPAPPVAGPSVFLFPPKPKDTLMISRTPEVTCVVVDVSHEDPEVQFNWYVDGVEVHNAKTKPREEQFNSTFRVVSVLTVVHQDWLNGKEYKCKVSNKGLPAPIEKTISKTKGQPREPQVYTLPPSREEMTKNQVSLTCLVKGFYPSDIAVEWESNGQPENNYKTTPPMLDSDGSFFLYSKLTVDKSRWQQGNVFSCSVMHEALHNHYTQKSLSLSPG |
| 320 nM |  |  | fusion protein 5 (insulin analog 1 + L2 + IgG2 Fc1) (Fc fusion) FVNQHLCGEHLVEALYLVCGERGFHYGGGGGGSGGGGGIVEQCCESICSLEQLENYCGGGGGQGGGGQGGGGQGGGGQGGGGQECPPCPAPPVAGPSVFLFPPKPKDTLMISRTPEVTCVVVDVSHEDPEVQFNWYVDGVEVHNAKTKPREEQFNSTFRVVSVLTVVHQDWLNGKEYKCKVSNKGLPAPIEKTISKTKGQPREPQVYTLPPSREEMTKNQVSLTCLVKGFYPSDIAVEWESNGQPENNYKTTPPMLDSDGSFFLYSKLTVDKSRWQQGNVFSCSVMHEALHNHYTQKSLSLSPG |
| 456 nM |  |  | fusion protein 6 (insulin analog 5 + L2 + IgG2 Fc1) (Fc fusion) FVNQHLCGEHLVEALYLVCGERGFHYGGGGGSGGGGGIVEQCCESICSLEQLENYCGGGGGQGGGGQGGGGQGGGGGECPPCPAPPVAGPSVFLFPPKPKDTLMISRTPEVTCVVVDVSHEDPEVQFNWYVDGVEVHNAKTKPREEQFNSTFRVVSVLTVVHQDWLNGKEYKCKVSNKGLPAPIEKTISKTKGQPREPQVYTLPPSREEMTKNQVSLTCLVKGFYPSDIAVEWESNGQPENNYKTTPPMLDSDGSFFLYSKLTVDKSRWQQGNVFSCSVMHEALHNHYTQKSLSLSPG |
| 194 nM | 31.2 nM |  | LY3209590 (Fc fusion) FVNQHLCGSHLVEALELVCGERGFHYGGGGGGSGGGGGIVEQCCTSTCSLDQLENYCGGGGGQGGGGQGGGGQGGGGGECPPCPAPPVAGPSVFLFPPKPKDTLMISRTPEVTCVVVDVSHEDPEVQFNWYVDGVEVHNAKTKPREEQFNSTFRVVSVLTVVHQDWLNGKEYKCKVSNKGLPAPIEKTISKTKGQPREPQVYTLPPSREEMTKNQVSLTCLVKGFYPSDIAVEWESNGQPENNYKTTPPMLDSDGSFFLYSKLTVDKSRWQQGNVFSCSVMHEALHNHYTQKSLSLSPG |
| 544 nM |  |  | fusion protein 8 (insulin analog 1 + L2 + IgG2 Fc1) (Fc fusion) FVNQHLCGEHLVEALYLVCGERGFHYGGGGGGSGGGGGIVEQCCESICSLEQLENYCGGGGGAGGGGAGGGGAGGGGGECPPCPAPPVAGPSVFLFPPKPKDTLMISRTPEVTCVVVDVSHEDPEVQFNWYVDGVEVHNAKTKPREEQFNSTFRVVSVLTVVHQDWLNGKEYKCKVSNKGLPAPIEKTISKTKGQPREPQVYTLPPSREEMTKNQVSLTCLVKGFYPSDIAVEWESNGQPENNYKTTPPMLDSDGSFFLYSKLTVDKSRWQQGNVFSCSVMHEALHNHYTQKSLSLSPG |
| 133 nM |  |  | fusion protein 9 (insulin analog 6 + L2 + IgG2 Fc1) (Fc fusion) FVNQHLCGEHLVEALYLVCGERGFHYGGGGGGSGGGGGIVEQCCESICSLEQLENYCNHGGGQGGGGQGGGGQGGGGGECPPCPAPPVAGPSVFLFPPKPKDTLMISRTPEVTCVVVDVSHEDPEVQFNWYVDGVEVHNAKTKPREEQFNSTFRVVSVLTVVHQDWLNGKEYKCKVSNKGLPAPIEKTISKTKGQPREPQVYTLPPSREEMTKNQVSLTCLVKGFYPSDIAVEWESNGQPENNYKTTPPMLDSDGSFFLYSKLTVDKSRWQQGNVFSCSVMHEALHNHYTQKSLSLSPG |
| 28.6 nM |  |  | fusion protein 3 (insulin analog 3 + L2 + IgG2 Fc1) (Fc fusion) FVNQHLCGSHLVEALHLVCGERGFHYGGGGGGSGGGGGIVEQCCTSICSLEQLENYCNGGGGQGGGGQGGGGQGGGGGECPPCPAPPVAGPSVFLFPPKPKDTLMISRTPEVTCVVVDVSHEDPEVQFNWYVDGVEVHNAKTKPREEQFNSTFRVVSVLTVVHQDWLNGKEYKCKVSNKGLPAPIEKTISKTKGQPREPQVYTLPPSREEMTKNQVSLTCLVKGFYPSDIAVEWESNGQPENNYKTTPPMLDSDGSFFLYSKLTVDKSRWQQGNVFSCSVMHEALHNHYTQKSLSLSPG |
| 90.5 nM |  | ~2 fold of the EC50 of LY3209590 | fusion protein 2 (insulin analog 2 + L2 + IgG2 Fc1) (Fc fusion) FVNQHLCGSHLVEALYLVCGERGFHYGGGGGGSGGGGGIVEQCCHSICSLEQLENYCGGGGGQGGGGQGGGGQGGGGGECPPCPAPPVAGPSVFLFPPKPKDTLMISRTPEVTCVVVDVSHEDPEVQFNWYVDGVEVHNAKTKPREEQFNSTFRVVSVLTVVHQDWLNGKEYKCKVSNKGLPAPIEKTISKTKGQPREPQVYTLPPSREEMTKNQVSLTCLVKGFYPSDIAVEWESNGQPENNYKTTPPMLDSDGSFFLYSKLTVDKSRWQQGNVFSCSVMHEALHNHYTQKSLSLSPG |
| 565 nM |  |  | fusion protein 4 (insulin analog 4 + L2 + IgG2 Fc1) (Fc fusion) FVKQHLCGEHLVEALYLVCGERGFHYGGGGGGSGGGGGIVEQCCESICSLEQLENYCGGGGGQGGGGQGGGGQGGGGGECPPCPAPPVAGPSVFLFPPKPKDTLMISRTPEVTCVVVDVSHEDPEVQFNWYVDGVEVHNAKTKPREEQFNSTFRVVSVLTVVHQDWLNGKEYKCKVSNKGLPAPIEKTISKTKGQPREPQVYTLPPSREEMTKNQVSLTCLVKGFYPSDIAVEWESNGQPENNYKTTPPMLDSDGSFFLYSKLTVDKSRWQQGNVFSCSVMHEALHNHYTQKSLSLSPG |
| 490 nM | 280 nM |  | fusion protein 1 (insulin analog 1 + L2 + IgG2 Fc1) (Fc fusion) FVNQHLCGEHLVEALYLVCGERGFHYGGGGGGSGGGGGIVEQCCESICSLEQLENYCGGGGGQGGGGQGGGGQGGGGGECPPCPAPPVAGPSVFLFPPKPKDTLMISRTPEVTCVVVDVSHEDPEVQFNWYVDGVEVHNAKTKPREEQFNSTFRVVSVLTVVHQDWLNGKEYKCKVSNKGLPAPIEKTISKTKGQPREPQVYTLPPSREEMTKNQVSLTCLVKGFYPSDIAVEWESNGQPENNYKTTPPMLDSDGSFFLYSKLTVDKSRWQQGNVFSCSVMHEALHNHYTQKSLSLSPG |
